Experimental data as given in the nanobody polyreactivity screen of Harvey et al. (2022).

Assay: yeast display, Sf9 membrane polyspecificity reagent, FACS + sequencing; frameworks hold sequencing errors
Outline: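 Genes from sorted yeast were amplified by colony PCR, read by MiSeq 2 × 250 sequencing and filtered on CDR length. These cells carried a synthetic nanobody library in Saccharomyces cerevisiae BJ5465 and were sorted by FACS into low and high (top ~1%) gates on anti-HA and streptavidin fluorescence. Polyreactivity is labelled according to the gate of origin.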

Row | Sequence | polyreactivity (PSR sort gate)
1 | QVQHVESVGGLVQARGSLRLSCAASGSIFDLYAMGWYRQAPGKERELVAGISYSGGSTYYADSVKGRFTISRDNAKNTVYLQMNSLKPEETAVYYCATAYYYHGGYYYPYDDYWGQGTQVTVSS | low polyreactivity
2 | QVQLVESGGGLVQAGGSLRLSCAASGRTYGNYAMGWSRPAPGKERELVAGITYRSGRTYYADSVKGRFTISRDNAKITFYLQMNSLKPEDTAVYYCAAASYYLTPKHDYWGQGTQVTVSW | high polyreactivity
3 | QDQLVESGGGLVQAGGSLRLSGAASGRIFGYYAMGWYRQPPGKETELVARISSGGGSTYYADSVKGRFTISRDNAKNTVYLQLNSLKPEDTAVDYCATVLYPYSPRYDYWGQGTLVTVSS | high polyreactivity
4 | QVQLVESGGGLVQAGGSLRLSCAASGLTFVANAMGWYRQAPGKERELVAAIDYGGGHTYYADSVKGRFTNSRDNAKNTVYLQMNSLKPEDTAVYYCAVGLPHGGRRLYGSWYRFDYWGQGTQVTVSS | low polyreactivity
5 | QVQLVESGGGLVQAGGSLRLSCAASGSTFPTKAMGWYRQAPGKERELVATITTRRSTYYADSVKGRFTISRDNAKNTVYLQMNSLKPEDTAVYYCNAEYVYLIFSVYLYDYDYWGQGTQVTVSS | low polyreactivity
6 | QVQLVESGGGLVQAGGSLRLSCAASGSTLPTNAMGWYRQAPGKERELVASNDQSGGSTYADSVKGRFTISRDNAKNTVYLQMNSLKPEDTAVYYCNARDSLRYYTYYFEYYRVGYEYWGQGTQVTVSS | high polyreactivity
7 | QVQLVESGGGLVQAGGSLRLSCAASGRIFGWNAMGWYRQAPGKERELVATITDGTSTNYADSVKGRFTISRDNAKNTVYLQMYSLKPVDTAVYYCAKRVVTSLYKPDGVKYDYWGQGTQVTVSS | high polyreactivity
8 | QVQLVESGRGLVQAGGSLRLSCAASGRIFVYYAMGWYRQAPGKERELVATISSGGSTYYADSVKGRFTISRDNAKNTVYLQMNSLKPEDTAVYYCAADNVNRYLAYYYKGDYWGQGTQVTVSS | low polyreactivity
9 | QDQHVESGGGLVQAGGSLRLSCAASGFIISYYDMGWYRQPPGHESELVATIDWSGGSTYYADSVKGRFTISRDNAKNTVYLQLNSLKPEDTAVYYCNADWIFGSAPSGRYKYDYWGQGTQVTVSS | low polyreactivity
10 | QVQLVESGGGLVQAGGSLRLSSAASGSTFSLYTMGWYRQEPGKERELVAAITWTGGSTYYADSVKGRFTISRDNAKNTVYLQMNSLKPEDTAVYYCAAVSRLTGSRESQLIRSRMYYWGQGTQVTVSS | high polyreactivity
11 | QVQLVESGGGLVQAVGSLRLTCAASGITFLNYAMGWYRQAPGKERELVSAISWSGGRTYYAVSVKGRFTISRDYAKNTVYLQMNSLKPEDTAVYYCATVYVRYRQSRLIRYGYWGQGTQVTVSS | high polyreactivity
12 | QVQLVESGGGLVQAGGSLRLSCAGSGRTVANNAMGWYRQAPGKERELVAAISNGDSPYADSVKGRFTISRDNAKNTVYLQLNSLKPEDTAVYYCATRTQEDYTGDYWGQGTQVTVSS | low polyreactivity
13 | QVQLVESGGGLVQAGGSLRLSCAASRGIFWVYAMGWYRQATGKEREMVAAISNSDTSTSYADSVKGRFTISRDNAKNTVYLQMNSLKPEDTALYYCNADSPSLSGDYWGQGTQVTVSS | low polyreactivity
14 | QVQLVESGGGLVQAGGSLRLSCAASGRSFDRNAMGLYRQAPGKERELVADITSIGTRTYYADSVKGRFTISRDNAKNSVYLQMNSLKPEDTAVYYCAADYYYSYWYWFSSSYGYWGQGTQVTVSS | high polyreactivity
15 | QVHLVESGGGLVQAGGILRVSCAASGRIFRTYVMGWYRQAPGKERELVAAITQRGGTTYYADSVKRRFTISRDNAKNTVYLQMNSLKPEDTAVYYCATRYRYYTERDYWGLGTQVTVSS | high polyreactivity
16 | QVQLVESGGGLVQAGGSLRLSCAASGGIFLGNAMGWYRQAPGKERELVAAISWSGGSTYYADSVKGRFTISRDNAKNTVYLQMNSLKPEDTAVYYCAAAWNRGKYNYYYWGQGTQVTVSS | high polyreactivity
17 | QVQLVESGGGLVQAGGSLRLSCAASGSIFVYYAMGWYRQAPGKERELVAAIDVSDGGTYYAESVKGRFTISRDNAKNTVYLQMNSLKPEVTAVYYCAADQGIDVPYIGYDYWGQGTQVTVSS | high polyreactivity
18 | QVQLVESGGGLVQAGGSLRLSCAASGSTLYSYAMGWYRQAPGKEREFVAAITSDDGSTYYADSVKGRFTISRDNAKNTVYLQMNSLKPEDTAVYYCATAASVEYNYWGQGTQVTVSS | low polyreactivity
19 | QVQLVESGGGLVQAGGSLRLSCAASGTTLYWNAMGWYRQAPGKERELVAAISRSGGSTYYADSVKGRFTISRDNAKNTVYLQMNSLKPEDTAVYYCAARRYVPHTEYYYWGQGTQVTVSS | low polyreactivity
20 | QVQLVESGGGLVQAGGSLRLSCAASGRIFARYTMGWYRQAPGKERDLVAAISRGGGTNYADSVKGRFTISRDNAKNTVYLQMNSLKPEDTAVSYCAADVSLVYPYSYRYYYWGQGTQVTVSS | low polyreactivity
21 | QVQLVESGGGLVQAGGSLRLSCAASGFTFYRNAMGWSRKAPGKERELVAAISTSGGSTHYADSVKGRFTISRDNAKNTVYLQMNSLKPEDTAVYYCAKRRSIRDEFGYWGQGTQVTVSS | high polyreactivity
22 | QVQLVESGGGLVQAGGSLRLSCAASGSTFLTYAMGWYRQAPGKERELLAASTRSTSTYADSVKGRFTISRDNAKNTVYFQMNSLKPEDTAVYYCNVDSYFRWWYDEWGQGTQVTVSS | high polyreactivity

Row | Sequence | polyreactivity (PSR sort gate)
23 | QVQLVESGGGLVQAGGSLRLSCAASGSTFETNGMGWYRQAPGKERELVAAITSGGSTYYADSVKGRFTISRDNAKNTVYLQMNSLKPEDTAVYYCAAVDGGWAYDPYDYWGQGTQVTVSS | low polyreactivity
24 | QVQLVESGGGLVQAGGSLRLSCAASGSIFSTYAMGWYRQAPGKERELVAAIRTWSGGRTYYADSVKGRFTISRDNAKNTVYLQMNSLKPEDTAVYYCAAQFSRYRDYGLNYYYWGQGTQVTVSS | high polyreactivity
25 | QVQLVESGGGLVQAGGSLRLSCAASGRTFGVKAMGWYRQAPGKERELVAAITSGGTTNYADSVKGRFTISRDNAKNTFYLQMNSLKPEDTAVYYCAARSYYPRYGYWGQGTQVTVSS | high polyreactivity
26 | QVQLVESGGGLVQAGGSLRLSCAAYGRIFSTYAMGWYRQAPGKERELVAAINSIGGRTYYADSVKGRFTISRDNAKNTVYLQMNSLKPEDTAVYYCAAGYRTRRGLGYYYWGQGTQVTVSS | high polyreactivity
27 | QVQLVESGGGLVQAGGSLRLSCAASGSIFKYYTMGWYRQAPGKERELVASINGGGSTNYADSVKGRFTISRDNAKNTVYLQMNSLKPEDTAVYYCNARYWWQDGYWGQGTQVTVSS | high polyreactivity
28 | QVQLVESGGGLVQAGGSLRLSCAASGSTFYVNAMGWYRQAPGKERELVAAITKSGGNTYYADSVKGRFTISRDNAKNTVYLQMNSLKPEDTAVYYCAKKYPRDMDYWGQGTQVTVSS | high polyreactivity
29 | QVQLVESGGGLVQAGGSLRLSCAASGSIFTLNAMGWYRQAPGKEREFVAAITWSGGSTYYADSVKGRFTISRDNAKNTVYLQMNSLKPEDTAVYYCNVEPVDRWYYKYDYWGQGTQVTVSS | low polyreactivity
30 | QVQLVESGGGLVQAGGSLRLSCAASGRTFHYNAMGWYRQAPGKERELVAAITRSGGSTYYADSVKGRFTISRDNAKNTVYLQMNSLKPEDTAVYYCAAGWRSVSVRYYGPSDYWGQGTQVTVSS | low polyreactivity
31 | QVQLVESGGGLVQAGGSLRLSCAASGRTLGHNAMGWYRPAPGKERELVAAITSRGGTTYADSVKGRFTISRDNAKKTVYLQMNSLKPEETAVYYCAARVSGSRKYYYWGQGTQVTVSS | high polyreactivity
32 | QVQLVESGGGLVQAGGSLRLSCAASGRTFWVYAMGWYRQAPGKERELVAGISWDDGSTDYADSVKGRFTISRDNAKNTVYLQMNSLKPEDTAVYYCNAGEYYKGYYYWGQGTQVTVSS | low polyreactivity
33 | QVQLVESGGGLVQAGGSLRLSCAASGGIFVQYTMGWYRQAPGKERELVAAISTGGSTYYADSVKGRFTISRDNAKNTVYLQMNSLKPEDTAVYYCAVVYRSQYSRYTSQWKEYYWGQGTQVTVSS | low polyreactivity
34 | QVQLVESGGGLVQAGGSLRLSCSASGYTFYLYTMGWYRQAPGTERELVAAISGSGTSTYYADSVKGRFTISRDNAKNTVYLQMNSLKPEDTAVYYCAAEDYSRDVYSYYYWGQGTQVTVSS | low polyreactivity
35 | QAQLVESGGGLVQSGGSLRLSCAASGSIFRPYAMGWYRQAPGKERELVAAISSSGGGTYYADSVKGRFTISRDNAKNTVYLQMNILKPEDTSVYLYGSWGQGTQVNVSS | low polyreactivity
36 | QVQLVESGGGLVQAGGSLRLSCAASGSIFASNAMGWYRQAPGKERELVAAITDSGSTNYADSVKGRFTISRDNAKNTVYLQMNSLKREDTAVYYCDWSYYVWRRYRVARYDSWGQGTQVTVSS | low polyreactivity
37 | QVQLVESGGGLVQAGGSLRLSCAASGSTFAYYTMGWYRQAPGKERELVAAITWSGGRTFYADSVKGRFTISRDNAKNTVYLQMNSLKPEDTAVYYCNTDDSHRPPRTPDDYNYWGQGTQVTVSS | high polyreactivity
38 | QVQHVESGGGLVQAGGSLRLSCAASVRTLYYYAMGWYRQAPGKERELVAAISGGGRTYYADSVKGRFTISRDNAKNTVYLQMNSLKPEDTAVYYCASRYRKSGLDNYWGQGTQVTVSS | high polyreactivity
39 | QVQLVESGGGLVQAGGSLRLSCAASGSTCYKYAMGWYRKAPGKERELVAVITKSGGSTYYADSVKGRFTISRDNAKNPVYLQMNSLTPEDTAVYYCGTVQSGRVRTYDYCGQGTQVTVSS | high polyreactivity
40 | QVQLVESGGGLVQAGGRLRLSCAASGSTFYRYAMGMYRPAPGKERELVAAINRSGVTTYYADSVKGRFTISRDNAKNTVYLQMNSLKPEDTAVYYCAAVLGRGLDYYYLGQGTQVTVSS | high polyreactivity
41 | QVQLVESGGGLVQAGGSLRLSCAASGSIFVPYAMGWYRQAPWKERELVAAISRGGDTNYADSVKGRFTISRDKAKNTVYLQMNSLIPEDTAVSYCNRARHQYSRWHGGYYYWGQCTQVTVSS | low polyreactivity
42 | QVQLVESGGGLVQAGGSLRLSCAASGFTFQYYTMGWYRQAPGKERELLAAITYSGSTYYADSVKGRFTISRDNAKNTVYLQMNSLKPEDTAVYYCNVYRGRYLYAWRPLGYWGQGTQVTVSS | high polyreactivity
43 | QVKLVESGGCLVQEGGSHRLSCAASGYIFDAYAMGWYRQAPGQERELVAAIDIGGSTYYADSVKGRFTISRDNAKNTVYLQMNSLKPEDTAVYYCAVWFYFDQWDYAREYWGQGTQVTVSS | low polyreactivity
